Reference: patent US20250236644A1 (University of Washington, published 2025)
Each block holds one binder with its values, some of them ahead of it.

How the values were obtained:
[1] = molecular target: T1, effector peptide cs221B; assay: FRET titration, 2 nM labeled hinge
T1 construct: Unlabeled
T1 peptide: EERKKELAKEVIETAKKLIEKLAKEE
Description: (§1) Dotted lines in spectra indicate acceptor and donor emission peaks. B) Kinetic model describing the coupling of the conformational equilibrium to the binding equilibrium. X and Y: hinge in state X and Y, respectively; P: peptide; YP: peptide bound to hinge in state Y. k₁, k₋₁, k₋₂, and […] the microscopic rate constants. C) FP characterization of unlabeled extended hinge cs074F. From left to right: binding titration at 0.1 nM TAMRA-labeled peptide and varying hinge concentrations; time course after mixing 2 nM TAMRA-labeled peptide and 100 nM hinge fitted with a single-exponential equation (black line); apparent rate constants obtained from single-exponential kinetic fits plotted against absolute hinge concentrations (circles) and fitted with a linear equation (black line). D) FRET-based reversibility experiment using the labeled extended hinge […] introduced in C). Hinge concentration is 30 nM for all traces; 1 μM peptide is added at t=0, 3 μM unlabeled competitor hinge is added after 1 h. E) Top from left to right: schematic representation of the inpainting procedure that adds two helices to the peptide cs074B yielding a three-helix bundle (3hb); cylindrical representation of 3hb_05 bound to hinge cs074; overlay of design model and crystal structure of 3hb_05. Bottom from left to right: SEC traces for hinge cs074, 3hb_05, and a mixture of both; FRET-based titration of 2 nM extended labeled hinge cs074F and varying concentrations of 3hb_05 fitted with a standard binding isotherm (back line); Distance distributions obtained from DEER experiments as described in FIG. 2 (cs074, cs074+peptide cs074B, cs074+3hb_05).
(§2) Titrations were carried out in 96-well format, with 4 replicates per plate and 24 data points per titration (23 steps of two-fold serial dilution of effector (peptide or 3hb) in the presence of double-labeled hinge at a constant concentration of 2 nM) with a final sample volume of 80 μl per well. Titration plates were incubated overnight at room temperature before measuring to ensure complete equilibration. The raw fluorescence signal (donor emission upon acceptor excitation) was fitted to the equation

[2] = molecular target: T2, effector peptide cs074B; assay: FRET titration, 2 nM labeled hinge
T2 construct: Chemically synthesized, unlabeled
T2 peptide: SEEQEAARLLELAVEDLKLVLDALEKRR
Description: as §1, §2

[3] = molecular target: T3, effector peptide cs201B; assay: FRET titration; 2 nM labeled hinge, effector varied
T3 construct: Unlabeled
T3 peptide: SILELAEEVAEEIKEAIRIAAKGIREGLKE
Description: as §1, §2

[4] = molecular target: T3, effector peptide cs201B; assay: FRET kinetics; slope of kapp against peptide concentration
Description: (§3) FIG. 14. Columns 1-3: FRET kinetics using extended hinges labeled with AlexaFluor™ 555 and AlexaFluor™ 647 at a constant concentration (2 nM for cs201F and cs074F, 5 nM for cs221F) and corresponding peptides at varying concentrations. Column 4: FP kinetics using TAMRA-labeled peptide cs074B at 2 nM and extended hinge cs074F at varying concentrations. All kinetic traces (rows 1-8) were fitted using a single-exponential equation (black lines). […] The slope of the linear fit gives the observed on rate kₒₙ.
(§4) For FRET kinetics experiments a 2× hinge solution and 8 different 2× effector solutions at different concentrations were prepared separately. 40 μl of each effector solution were mixed with 40 μl hinge solution using a multichannel pipet and the measurement was started immediately after mixing. Fluorescence signals S at each concentration were fitted individually to the equation

[5] = molecular target: T4, effector protein 3hb21; assay: FRET kinetics; 5 nM hinge, 3hb varied
T4 construct: Three-helix bundle built around peptide cs221B
T4 chain: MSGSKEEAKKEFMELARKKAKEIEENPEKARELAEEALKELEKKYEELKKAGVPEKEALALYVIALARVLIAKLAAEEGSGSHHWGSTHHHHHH
Description: (§5) FIG. 18. FRET-based quantitative analysis of the interaction between cs221F and 3hb21. Individual kinetic traces were obtained using a constant hinge concentration of 5 nM and varying 3hb concentrations as indicated by plot labels. Single exponential fits give apparent rate constants that increase linearly with the total 3hb concentration (points in pseudo-first order plot). The linear fit of kₐₚₚ against 3hb concentration gives an observed on rate that is 5 times faster than the observed on rate of the original peptide.
as §4

[6] = molecular target: T3, effector peptide cs201B; assay: FRET titration, 2 nM labeled hinge
Description: as §1, §2

[7] = molecular target: T4, effector protein 3hb21; assay: FRET titration; 2 nM hinge cs221F, 3hb varied
Description: as §5, §2

[8] = molecular target: T1, effector peptide cs221B; assay: FRET titration; 2 nM labeled hinge, effector varied
Description: as §1, §2

[9] = molecular target: T4, effector protein 3hb21; assay: as above
Description: as §1, §2

[10] = molecular target: T4, effector protein 3hb21; assay: FRET kinetics; 5 nM labeled hinge, slope of kapp against 3hb concentration
[11] = molecular target: T1, effector peptide cs221B; assay: FRET kinetics; slope of kapp against peptide concentration
Description: as §3, §4

[12] = molecular target: T5, effector protein 3hb11; assay: FRET titration; 2 nM labeled hinge, effector varied
T5 construct: Three-helix bundle built around peptide cs074B
T5 chain: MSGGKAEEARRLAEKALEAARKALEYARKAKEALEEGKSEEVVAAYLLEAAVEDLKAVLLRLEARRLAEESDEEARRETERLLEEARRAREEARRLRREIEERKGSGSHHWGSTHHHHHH
Description: as §1, §2

[13] = molecular target: T6, effector protein 3hb12; assay: as above
T6 construct: Three-helix bundle built around peptide cs074B
T6 chain: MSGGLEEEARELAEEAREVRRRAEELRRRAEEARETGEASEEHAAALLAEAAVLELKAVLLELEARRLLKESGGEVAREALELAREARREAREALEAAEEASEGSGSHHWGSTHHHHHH
Description: as §1, §2

[14] = molecular target: T7, effector protein 3hb05; assay: as above
T7 construct: Three-helix bundle built around peptide cs074B
T7 chain: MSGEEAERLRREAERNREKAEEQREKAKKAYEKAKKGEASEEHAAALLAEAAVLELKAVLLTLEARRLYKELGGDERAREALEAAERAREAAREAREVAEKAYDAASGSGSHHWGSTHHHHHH
Description: as §1, §2

[15] = molecular target: T2, effector peptide cs074B; assay: as above
Description: as §1, §2

[16] = molecular target: T8, effector protein 3hb08; assay: as above
T8 construct: Three-helix bundle built around peptide cs074B
T8 chain: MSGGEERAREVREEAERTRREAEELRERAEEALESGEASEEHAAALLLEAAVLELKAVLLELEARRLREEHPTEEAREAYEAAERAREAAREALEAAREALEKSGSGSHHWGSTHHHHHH
Description: as §1, §2

[17] = molecular target: T9, effector protein 3hb03; assay: as above
T9 construct: Three-helix bundle built around peptide cs074B
T9 chain: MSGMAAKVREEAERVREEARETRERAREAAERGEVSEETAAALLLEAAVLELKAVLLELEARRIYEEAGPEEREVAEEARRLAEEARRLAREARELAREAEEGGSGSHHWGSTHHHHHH
Description: as §1, §2

[18] = molecular target: T10, effector protein 3hb04; assay: as above
T10 construct: Three-helix bundle built around peptide cs074B
T10 chain: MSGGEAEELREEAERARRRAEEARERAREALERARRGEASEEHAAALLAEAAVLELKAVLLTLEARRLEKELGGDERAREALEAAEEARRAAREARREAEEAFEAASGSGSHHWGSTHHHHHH
Description: as §1, §2

[19] = molecular target: T1, effector peptide cs221B; assay: FRET titration; 2 nM labeled hinge, off-target peptide varied
Description: (§6) The buffer for all FRET measurements was 20 mM Tris-HCl, 100 mM NaCl, 0.05% v/v TWEEN®20 at pH 8. Fluorescence spectra were recorded at room temperature using a FluoroMax™ spectrometer in a 1 cm×1 cm cuvette at a sample volume of 3 ml. FRET titrations and kinetics measurements were performed at 25° C. in 96-well plates (Corning 3686) using a Synergy Neo2™ plate reader. Excitation wavelength was 520 nm and emission wavelength was 665 nm (except for donor-donor controls for which emission wavelength was 555 nm, see FIG. 13B right column).
as §2

[20] = molecular target: T3, effector peptide cs201B; assay: as above
Description: as §6, §2

[21] = molecular target: T2, effector peptide cs074B; assay: FRET kinetics; slope of kapp against peptide concentration
Description: as §3, §4

binding result [1]: no binding (tested: µM concentrations)
binding result [2]: no binding (tested: µM concentrations)
Kd [3]: 20 nM
kon [4]: 4500 M⁻¹ s⁻¹
B1: FRET(extension) cs201F, labeled with AlexaFluor 555 and AlexaFluor 647 (designed binder)
chain: MSGDEEVQEAVERAEELREEAEELIKKARKTGDPELLRKALEALEEAVRAVEEAICRNPDNDEAVETAVRLARELKKVAEELQERAKKTGDPELLKLALRALEVAVRAVELAIKSNPDNDEAVETAVRLARELKKVAEELQERAKKTGDPELLKLALRALEVAVRAVELAIKRNPDNEEAIKTALRLARELRKVAKELIERARKTGDAELLKKALEAARVAVEAVRLAAEYNKENAEKMAELLVELAELAREVADVLIELAEKTGDPELLKKALEVLEEAVEAVRLAIEYDPDHDEAVETAVRLARELKKVAEELQERAKKTGDPELLKLALRALEVAVRAVELAIKSNPDNEEAVETAKRLAEELRKVAELLEERAKETGDPCLQELAKRAKEVADRARELAKKSNPNNGSGSHHWGSTHHHHHH
modifications: the two introduced cysteines stochastically labeled with an equal mixture of AlexaFluor 555 C2 maleimide (donor) and AlexaFluor 647 C2 maleimide (acceptor)
notes: also called FRET-labeled hinge cs201F

fold faster observed on rate than the original peptide cs221B [5]: 5 fold
binding result [6]: no binding (tested: µM concentrations)
binding result [2]: no binding (tested: µM concentrations)
Kd [7]: < 2 nM
fold stronger KD than the original peptide cs221B [7]: 20 fold
Kd [8]: 21 nM
Kd [9]: 2.2 nM
kon [10]: 13000 M⁻¹ s⁻¹
kon [11]: 2600 M⁻¹ s⁻¹
B2: FRET(extension) cs221F, labeled with AlexaFluor 555 and AlexaFluor 647 (designed binder)
chain: MSGEMVEEIEKLAEELAKKTKDCEVKKLAKKAAELAKKSTDEMKKEIVKDALELALRTKDEEVIRLALKAAVLAAESDDEEVKEVVKKALEAALKSKDEEVIRLLLLAAVLAAAAARSGSPEEKLEIAKKALELAMKSKDEEVIRLALLAAVLAARSDDEEVLKIVKKALELAMESKDVEVIRLALEAAVLAARSTDPEKKKCVYEALEKAMESKDEEEIKKELKAAVEKARSTEGSGSHHWGSTHHHHHH
modifications: the two introduced cysteines stochastically labeled with an equal mixture of AlexaFluor 555 C2 maleimide (donor) and AlexaFluor 647 C2 maleimide (acceptor)

Kd [12]: < 2 nM
Kd [13]: < 2 nM
Kd [14]: < 2 nM
Kd [15]: < 2 nM
Kd [16]: < 2 nM
Kd [17]: < 2 nM
Kd [18]: < 2 nM
Kd [19]: 130 nM
Kd [20]: 2500 nM
kon [21]: 170000 M⁻¹ s⁻¹
B3: FRET(extension) cs074F, labeled with AlexaFluor 555 and AlexaFluor 647 (designed binder)
chain: DEEVQEAVERAEELREEAEELIKKARKTGDPELLRKALEALECAVRAVEEAIKRNPDNDEAVETAVRLARELKKVAEELQERAKKTGDPELLKLALRALKVAVRAVKLAIKSNPDNEEAVKTAVRLARELLKVAEELKERAEKTGDPRLLLLAAEAIAWAIEAVFLAAKASENTEGALEAARAAVKLAEVAKRIAKLLQRDAKKEGDPELLKLALRALELAVRAVELAIKENPDNDEAVETAVRLARELKKVAEELQERAKKTGDPELLKLALRALEVAVRAVELAIKSNPDNEEAVETAKRLAEELRKVAELLEERACETGDPELQELAKRAKEVADRARELAKKSNPNNGSHHHHHH
modifications: the two introduced cysteines stochastically labeled with an equal mixture of AlexaFluor 555 C2 maleimide (donor) and AlexaFluor 647 C2 maleimide (acceptor)
notes: Extended hinge cs074 used in the FRET assays; also called extended labeled hinge cs074F
